Results taken from FireProtDB (doi:10.1074/jbc.274.53.37533).

B1: Cytochrome c-551, P00099 (parent)
chain: MKPYALLSLLATGTLLAQGAWAEDPEVLFKNKGCVACHAIDTKMVGPAYKDVAAKFAGQAGAEAELAQRIKNGSQGVWGPIPMPPNAVSDDEAQTLAKWVLSQK

Variants of: B1
Details: Pseudomonas aeruginosa (strain ATCC 15692 / DSM 22644 / CIP 104116 / JCM 14847 / LMG 12228 / 1C / PRS 101 / PAO1), pH 5, CD, structure 451C, whole UniProt chain shown

For MKPYALLSLLATGTLLAQGAWAEDPEVLAKNKGCVACHAIDTKMVGPAYKDVAAKFAGQAGAEAELAQRIKNGSQGVWGPIPMPPNAVSDDEAQTLAKWVLSQK [F29A], the “ddG of mutation (higher = less stable)” value (50.4 °C, Thermal, HCl 10 mM) was -1.1 kcal/mol, the Tm (Thermal, HCl) was 59.9 °C and the “change of melting temperature, mutant - wild type (higher = more stable)” value (shortened to “change of melting temperature, mutant”) (Thermal, HCl) was 9.5 °C. For the same variant, the “unfolding enthalpy (van 't Hoff)” value (Thermal, HCl) was 48.2 kcal/mol.

In the case of MKPYALLSLLATGTLLAQGAWAEDPEVLFKNKGCVACHAIDTKMVGPAYKDVAAKFAGQAGAEAYLAQRIKNGSQGVWGPIPMPPNAVSDDEAQTLAKWVLSQK [E65Y], the “ddG of mutation (higher = less stable)” value (50.4 °C, Thermal, HCl 10 mM) is reported as -0.6 kcal/mol, the Tm (Thermal, HCl) is reported as 55.5 °C and the “change of melting temperature, mutant” value (Thermal, HCl) is reported as 5.1 °C. The “unfolding enthalpy (van 't Hoff)” value (Thermal, HCl) was 57.4 kcal/mol.

With MKPYALLSLLATGTLLAQGAWAEDPEVLFKNKGCMACHAIDTKMVGPAYKDVAAKFAGQAGAEAELAQRIKNGSQGVWGPIPMPPNAVSDDEAQTLAKWVLSQK [V35M] the “ddG of mutation (higher = less stable)” value (50.4 °C, Thermal, HCl 10 mM) was -0.4 kcal/mol, the Tm (Thermal, HCl) was 53.6 °C and the “change of melting temperature, mutant” value (Thermal, HCl) was 3.2 °C. For the same variant, the “unfolding enthalpy (van 't Hoff)” value (Thermal, HCl) was 43.8 kcal/mol.

For MKPYALLSLLATGTLLAQGAWAEDPEVLFKNKGCVACHAIDTKMVGPAYKDVAAKYAGRAGAEAELAQRIKNGSQGVWGPIPMPPNAVSDDEAQTLAKWVLSQK [F56Y Q59R], the “ddG of mutation (higher = less stable)” value (50.4 °C, Thermal, HCl 10 mM) was -1.5 kcal/mol, the Tm (Thermal, HCl) was 62.9 °C and the “change of melting temperature, mutant” value (Thermal, HCl) was 12.5 °C. For the same variant, the “unfolding enthalpy (van 't Hoff)” value (Thermal, HCl) was 54.5 kcal/mol.

For MKPYALLSLLATGTLLAQGAWAEDPEVLAKNKGCMACHAIDTKMVGPAYKDVAAKFAGQAGAEAELAQRIKNGSQGVWGPIPMPPNAVSDDEAQTLAKWVLSQK [F29A V35M], the “ddG of mutation (higher = less stable)” value (50.4 °C, Thermal, HCl 10 mM) was -1.4 kcal/mol, the Tm (Thermal, HCl) was 62.4 °C and the “change of melting temperature, mutant” value (Thermal, HCl) was 12 °C. The “unfolding enthalpy (van 't Hoff)” value (Thermal, HCl) was 46.7 kcal/mol.

With MKPYALLSLLATGTLLAQGAWAEDPEVLFKNKGCVACHAIDTKMVGPAYKDVAAKYAGRAGAEAYLAQRIKNGSQGVWGPIPMPPNAVSDDEAQTLAKWVLSQK [F56Y Q59R E65Y] the “ddG of mutation (higher = less stable)” value (50.4 °C, Thermal, HCl 10 mM) was -2 kcal/mol, the Tm (Thermal, HCl) was 57.9 °C and the “change of melting temperature, mutant” value (Thermal, HCl) was 17.5 °C. For the same variant, the “unfolding enthalpy (van 't Hoff)” value (Thermal, HCl) was 56.4 kcal/mol.

In the case of MKPYALLSLLATGTLLAQGAWAEDPEVLFKNKGCVACHAIDTKMVGPAYKDVAAKFAGRAGAEAELAQRIKNGSQGVWGPIPMPPNAVSDDEAQTLAKWVLSQK [Q59R], the “ddG of mutation (higher = less stable)” value (50.4 °C, Thermal, HCl 10 mM) is reported as -0.5 kcal/mol, the Tm (Thermal, HCl) is reported as 54.7 °C and the “change of melting temperature, mutant” value (Thermal, HCl) is reported as 4.3 °C. For the same variant, the “unfolding enthalpy (van 't Hoff)” value (Thermal, HCl) was 51.3 kcal/mol.

In the case of MKPYALLSLLATGTLLAQGAWAEDPEVLFKNKGCVACHAIDTKMVGPAYKDVAAKFAGRAGAEAYLAQRIKNGSQGVWGPIPMPPNAVSDDEAQTLAKWVLSQK [Q59R E65Y], the “ddG of mutation (higher = less stable)” value (50.4 °C, Thermal, HCl 10 mM) is reported as -0.5 kcal/mol, the Tm (Thermal, HCl) is reported as 54.7 °C and the “change of melting temperature, mutant” value (Thermal, HCl) is reported as 4.3 °C. The “unfolding enthalpy (van 't Hoff)” value (Thermal, HCl) was 46.2 kcal/mol.

With MKPYALLSLLATGTLLAQGAWAEDPEVLFKNKGCVACHAIDTKMVGPAYKDVAAKYAGQAGAEAELAQRIKNGSQGVWGPIPMPPNAVSDDEAQTLAKWVLSQK [F56Y] the “ddG of mutation (higher = less stable)” value (50.4 °C, Thermal, HCl 10 mM) was -1.9 kcal/mol, the Tm (Thermal, HCl) was 66.4 °C and the “change of melting temperature, mutant” value (Thermal, HCl) was 16 °C. The “unfolding enthalpy (van 't Hoff)” value (Thermal, HCl) was 61.2 kcal/mol.

With MKPYALLSLLATGTLLAQGAWAEDPEVLFKNKGCVACHAIDTKMVGPAYKDVAAKFAGQAGAEAELAQRIKNGSQGVWGPIPMPPNAVSDDEAQTLAKWILSQK [V100I] the “ddG of mutation (higher = less stable)” value (25 °C, GdnHCl, HCl) was -0.06 kcal/mol, the denaturant m value (25 °C, GdnHCl, HCl) was 2.02 kcal/mol/M and the “denaturant midpoint (higher = more stable)” value (25 °C, GdnHCl, HCl) was 2.44 M. The “ddG of mutation (higher = less stable)” value (50.4 °C, Thermal, HCl 10 mM) was -1 kcal/mol, the Tm (Thermal, HCl) was 58.8 °C and the “change of melting temperature, mutant” value (Thermal, HCl) was 8.4 °C. For the same variant, the “unfolding enthalpy (van 't Hoff)” value (Thermal, HCl) was 43.8 kcal/mol.

In the case of MKPYALLSLLATGTLLAQGAWAEDPEVLFKNKGCVACHAIDTKMVGPAYKDVAAKYAGQAGAEAYLAQRIKNGSQGVWGPIPMPPNAVSDDEAQTLAKWVLSQK [F56Y E65Y], the “ddG of mutation (higher = less stable)” value (50.4 °C, Thermal, HCl 10 mM) is reported as -2.4 kcal/mol, the Tm (Thermal, HCl) is reported as 70.7 °C and the “change of melting temperature, mutant” value (Thermal, HCl) is reported as 20.3 °C. For the same variant, the “unfolding enthalpy (van 't Hoff)” value (Thermal, HCl) was 63.7 kcal/mol.
